According to publication PMC4929722:

How the values were obtained:
[1] = molecular target: BTas-B (bovine foamy virus transactivator Tas of clone pBS-BFV-B, N108) (bovine foamy virus (BFV3026)); assay: cross-linking; lysates of transfected HEK293T cells (20 mM Tris-Cl pH 7.5, 150 mM EDTA, 0.5 mM Na3VO4, 1 % NP-40) mixed with 0.01 % glutaraldehyde in 20 mM triethanolamine pH 8.2, 10 mM NaCl, 30 min at room temperature; 12 % SDS-PAGE and immunoblot with anti-BTas
[2] = molecular target: BTas-Y (bovine foamy virus transactivator Tas of clone pBS-BFV-Y, D108) (bovine foamy virus (BFV3026)); assay: as above

Row | Substance | stoichiometry N [1] | stoichiometry N [2]
1 | BTas-B (bovine foamy virus transactivator Tas of clone pBS-BFV-B, N108) (natural protein) | 2 | –
2 | BTas-Y (bovine foamy virus transactivator Tas of clone pBS-BFV-Y, D108) (natural protein) | – | 2
